# Measurements published in US20210154269A1.
# Tests used:
# [1] = target: human CD47 (human) (UniProt Q08722); assay: cell-based or functional assay
# [2] = target: human CD47 (human) (UniProt Q08722); assay: in vitro receptor occupancy assay, at ~1 µM
# [3] = target: human CD47 (human) (UniProt Q08722); assay: affinity for human CD47; method not stated
substance,measurement,setting,value
TTI-621 (from UniProt P78324 31-149) (Fc fusion),"EC50, PathHunter SIRPα Signaling Bioassay",[1],> 0.15 µg/mL
same,inhibition of SIRPα signaling at 1 nM,[1],< 10%
same,receptor occupancy,[2],40%
same,Kd,[3],500 nM
TTI-622 (from UniProt P78324 31-149) (Fc fusion),"EC50, PathHunter SIRPα Signaling Bioassay",[1],> 0.15 µg/mL
same,inhibition of SIRPα signaling at 1 nM,[1],< 10%
same,receptor occupancy,[2],40%
same,Kd,[3],500 nM
